Assay results taken from patent US20050169843A1.
Primed or numbered codes have the meaning given here. FITC′ = fluorescein isothiocyanate label

What was measured:
[1] = test system: T1, Gly-Pro-Leu-Gly-Val-Arg-Gly-Lys(FITC)-Cys-NH2 (MMP-2 peptide substrate)
T1 sequence: GPLGVRGKC

[2] = test system: T2, Gly-Val-Arg-Leu-Gly-Pro-Gly-Lys(FITC)-Cys-NH2 (scrambled control peptide)
T2 sequence: GVRLGPGKC

thrombin = test: cell-based or functional assay
[3] = test system: T3, Gly-D-Phe-Pip-Arg-Pro-Gly-Gly-Gly-Gly-Lys(FITC)-Cys-NH2 (control peptide)
T3 sequence: GFXRPGGGGKC

[4] = test system: T4, Gly-D-Phe-Pip-Arg-Ser-Gly-Gly-Gly-Gly-Lys(FITC)-Cys-NH2 (thrombin substrate peptide)
T4 sequence: GFXRSGGGGKC

[5] = test system: Cy-PL-MPEG at 20% fluorochrome loading (11 of 55 free amino groups labelled with Cy5.5)
[6] = biological target: MMP-1 (human rheumatoid synovial fibroblast, Calbiochem), APMA activated (human) (UniProt P03956); test: cell-based or functional assay
MMP-1 (human rheumatoid synovial fibroblast, Calbiochem), APMA activated (human), sequence (P03956 100-469 limits assumed): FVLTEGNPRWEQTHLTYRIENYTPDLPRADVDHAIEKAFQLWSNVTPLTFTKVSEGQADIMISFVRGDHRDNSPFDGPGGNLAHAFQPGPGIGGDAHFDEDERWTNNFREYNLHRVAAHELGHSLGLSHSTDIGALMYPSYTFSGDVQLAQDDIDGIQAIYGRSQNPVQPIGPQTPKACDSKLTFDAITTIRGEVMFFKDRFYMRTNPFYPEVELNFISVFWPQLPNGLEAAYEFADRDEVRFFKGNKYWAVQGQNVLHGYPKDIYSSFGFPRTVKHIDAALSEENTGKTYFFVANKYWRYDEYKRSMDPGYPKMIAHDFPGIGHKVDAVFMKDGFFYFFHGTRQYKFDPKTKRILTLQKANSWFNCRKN

[7] = biological target: MMP-2 (gelatinase 72 kD, Boehringer Mannheim), activated with p-aminophenyl mercuric acid; test: cell-based or functional assay
[8] = biological target: MMP-2 (human recombinant protein purified from mammalian cells, Calbiochem), APMA activated (human) (UniProt P08253); test: cell-based or functional assay
MMP-2 (human recombinant protein purified from mammalian cells, Calbiochem), APMA activated (human), sequence (P08253 110-660 limits assumed): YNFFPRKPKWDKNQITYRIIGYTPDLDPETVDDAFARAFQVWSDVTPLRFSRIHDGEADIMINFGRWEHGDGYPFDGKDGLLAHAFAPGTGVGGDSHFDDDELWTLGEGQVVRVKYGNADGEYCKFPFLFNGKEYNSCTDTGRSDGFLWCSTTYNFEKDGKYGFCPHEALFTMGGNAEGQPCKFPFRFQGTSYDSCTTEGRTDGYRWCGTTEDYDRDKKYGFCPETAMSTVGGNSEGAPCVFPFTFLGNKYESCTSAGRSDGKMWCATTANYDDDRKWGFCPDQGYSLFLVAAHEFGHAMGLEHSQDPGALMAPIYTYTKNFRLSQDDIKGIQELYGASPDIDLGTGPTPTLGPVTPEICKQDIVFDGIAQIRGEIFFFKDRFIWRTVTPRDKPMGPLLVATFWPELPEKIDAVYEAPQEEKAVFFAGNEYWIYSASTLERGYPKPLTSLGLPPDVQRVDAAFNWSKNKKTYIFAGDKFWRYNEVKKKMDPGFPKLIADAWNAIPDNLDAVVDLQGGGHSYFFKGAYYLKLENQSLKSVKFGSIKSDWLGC

[9] = biological target: T5, MMP-7 (human recombinant, E. Coli, Calbiochem), APMA activated (human) (UniProt P09237); test: cell-based or functional assay
T5 sequence (looked up): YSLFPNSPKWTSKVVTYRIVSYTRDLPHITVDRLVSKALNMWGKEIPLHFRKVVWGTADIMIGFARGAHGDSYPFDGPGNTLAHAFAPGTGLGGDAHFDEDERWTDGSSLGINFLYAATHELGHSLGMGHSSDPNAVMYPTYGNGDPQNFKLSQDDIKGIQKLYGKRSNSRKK

[10] = biological target: MMP-8 (human neutrophil granulocyte, Calbiochem), APMA activated (human) (UniProt P22894); test: cell-based or functional assay
MMP-8 (human neutrophil granulocyte, Calbiochem), APMA activated (human), sequence (P22894 101-467 limits assumed): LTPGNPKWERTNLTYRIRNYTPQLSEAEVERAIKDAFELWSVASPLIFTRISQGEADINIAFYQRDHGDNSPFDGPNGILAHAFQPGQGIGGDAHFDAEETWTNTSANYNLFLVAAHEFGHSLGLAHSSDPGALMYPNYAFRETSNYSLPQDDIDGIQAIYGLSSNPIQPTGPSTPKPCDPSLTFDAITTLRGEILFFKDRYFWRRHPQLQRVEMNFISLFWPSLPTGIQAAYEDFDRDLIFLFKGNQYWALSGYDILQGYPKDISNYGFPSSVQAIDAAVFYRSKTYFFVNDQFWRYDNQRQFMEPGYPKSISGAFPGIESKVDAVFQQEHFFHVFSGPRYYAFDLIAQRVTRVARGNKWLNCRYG

[11] = biological target: MMP-9 (human recombinant protein purified from mammalian cells, Oncogene Research Products), APMA activated (human) (UniProt P14780); test: cell-based or functional assay
MMP-9 (human recombinant protein purified from mammalian cells, Oncogene Research Products), APMA activated (human), sequence (P14780 107-707 limits assumed): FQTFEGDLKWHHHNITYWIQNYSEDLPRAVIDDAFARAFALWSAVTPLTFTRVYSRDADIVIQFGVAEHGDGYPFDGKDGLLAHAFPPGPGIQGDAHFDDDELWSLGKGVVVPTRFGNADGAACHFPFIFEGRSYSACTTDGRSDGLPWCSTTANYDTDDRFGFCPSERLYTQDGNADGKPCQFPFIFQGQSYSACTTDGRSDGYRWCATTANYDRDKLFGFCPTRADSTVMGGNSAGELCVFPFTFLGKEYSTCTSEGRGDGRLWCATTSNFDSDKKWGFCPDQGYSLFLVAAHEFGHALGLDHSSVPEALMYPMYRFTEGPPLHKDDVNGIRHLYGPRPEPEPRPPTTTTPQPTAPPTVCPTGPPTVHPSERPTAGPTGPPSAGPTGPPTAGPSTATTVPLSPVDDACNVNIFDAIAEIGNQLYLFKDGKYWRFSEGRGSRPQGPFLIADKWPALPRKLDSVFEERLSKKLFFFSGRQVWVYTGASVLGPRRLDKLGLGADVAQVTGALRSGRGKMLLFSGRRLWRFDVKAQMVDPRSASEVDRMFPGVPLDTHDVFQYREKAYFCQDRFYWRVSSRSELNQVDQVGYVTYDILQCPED

MMP-2 (gelatinase 72 kD, Boehringer Mannheim), activated with p-aminophenyl mercuric acid
cleavage followed by HPLC [1]: confirmed by HPLC showing only cleavage of the former but not the latter
cleavage followed by HPLC [2]: confirmed by HPLC showing only cleavage of the former but not the latter

control probe (PGC graft copolymer carrying Cy5.5-labelled thrombin control peptide)
NIRF signal after addition of thrombin (thrombin): 1 fold

thrombin
enzymatic assay, cleavage followed by HPLC [3]: there was no cleavage when the serine at P1′ position was replaced by a proline residue
enzymatic assay, cleavage followed by HPLC [4]: the peptide was recognized by thrombin and cleaved into two major products

trypsin
fluorescence signal increase upon activation (trypsin cleavage of the backbone) [5]: Maximum fluorescence recovery was obtained at 20% loading (15-fold fluorescence signal increase upon activation)

B1: MMP-2 sensitive probe (PGC graft copolymer carrying Cy5.5-labelled MMP-2 substrate peptides) (peptide, part only; not given: graft copolymer backbone and dye, part only)
peptide: {Cy5.5}-GPLGVRGK(FITC′)C-NH2
modifications: not fully specified (residue 9); printed as GPLGVRGK(FITC)C-NH2; also: about 12 peptides per PGC graft copolymer
relative fluorescence increase at equimolar conditions (scaled to active MMP-2 set to 100%) [6]: 19%
fluorescence increase in vitro [7]: < 850%
fluorescence activation (7 pmole enzyme, 10 pmole probe, 10 minutes, 37°) [8]: 4.7 AU
relative fluorescence increase at equimolar conditions (scaled to active MMP-2 set to 100%) [9]: 12%
relative fluorescence increase at equimolar conditions (scaled to active MMP-2 set to 100%) [10]: 28%
relative fluorescence increase at equimolar conditions (scaled to active MMP-2 set to 100%) [11]: 19%
